pKd: −log10 of the molar value.
Legend:
[1] = target: wild-type Grb2 (growth factor receptor-bound protein 2), bacterially expressed and purified (UniProt P62993); assay: MST; unlabelled Grb2 (7.3 nM to about 30 μM) titrated into 100 nM Atto488-labelled Grb2; 20 °C; PBS without calcium and magnesium, 0.01% Tween 20; apparent Kd, dimer to monomers
[2] = target: wild-type Grb2 (growth factor receptor-bound protein 2), bacterially expressed and purified (UniProt P62993); assay: MST; monomer–dimer equilibrium of Grb2 in the presence of the SOS1 peptide (…); apparent Kd, dimer to monomers

## wild-type Grb2 (growth factor receptor-bound protein 2), bacterially expressed and purified (from UniProt P62993 1-217) (natural protein)
[1]
  pKd: 6.12
[2]
  pKd: 6.15
